Laboratory results taken from publication PMC12669751, “Immunodominant antibodies against hemagglutinin in ferrets following infection with 2018 to 2019 influenza vaccine strains” (NPJ Vaccines, 2025).

Molecular target: TX/50 egg-version rHA1 (Influenza A virus A/Texas/50/2012 …, UniProt R4L1D1, strain)
Assay: BLI
Conditions: one partner purified

B1: monoclonal antibody FluA-20 (antibody, V domains shown)
VH: QVQLEESGPGLVKPSETLSLTCSVSGVSVTSDIYYWTWIRQPPGKGLEWIGYIFYNGDTNYNPSLKSRVTMSIDTSKNEFSLRLTSVTAADTAVYFCARGTEDLGYCSSGSCPNHWGQGTLVTVSS
VL: DIVMTQSPSSLSASIGDRVTITCRPSQNIRSFLNWFQHKPGKAPKLLIYAASNLQSGVPSRFSGSGSGTEFTLTIRSLQPEDFATYYCQQSYNTPPTFGQGTKVEIK
notes: also called FluA-20 mAb; pan-H3 anti-HA1 mAb; copies: 2 + 2
binding result: binds
